# B1: TRAILR2mut-D-SPD (ligand)
# chain: QRVAAHITGTRGRSNTLSSPNSKNEKALGRKINSWESSRSGHSFLSNLHLRNGELVIHEKGFYYIYSQTQFKFREEIKENTKNDKQMVQYIYKYTSYPDPILLMKSARNSCWSKDAEYGLYSIYQGGIFELKENDRIFVSVTNERLLQMDHEASFFGAFLVGSGLPDVASLRQQVEALQGQVQHLQAAFSQYKKVELFPNGQSVGEKIFKTAGFVKPFTEAQLLCTQAGGQLASPRSAAENAALQQLVVAKNEAAFLSMTDSKTEGKFTYPTGESLVYSNWAPGEPNDDGGSEDCVEIFTNGKWNDRACGEKRLVVCEFGGSPSSSSSSAWSHPQFEK
# notes: it is assembled from the construct description; also called TRAILR2mut (member of the SPD variants)
# B2: TRAILR2mut-D-CCSPD (ligand)
# chain: QRVAAHITGTRGRSNTLSSPNSKNEKALGRKINSWESSRSGHSFLSNLHLRNGELVIHEKGFYYIYSQTQFKFREEIKENTKNDKQMVQYIYKYTSYPDPILLMKSARNSCWSKDAEYGLYSIYQGGIFELKENDRIFVSVTNERLLQMDHEASFFGAFLVGSGLPDVASLRQQVEALQGQVQHLQAAFSQYKKVELFPNGPSSSSSSAWSHPQFEK
# notes: as for B1
# B3: LIGHT-ASPD (ligand)
# chain: EVNPAAHLTGANSSLTGSGGPLLWETQLGLAFLRGLSYHDGALVVTKAGYYYIYSKVQLGGVGCPLGLASTITHGLYKRTPRYPEELELLVSQQSPCGRATSSSRVWWDSSFLGGVVHLEAGEEVVVRVLDERLVRLRDGTRSYFGAFMVGSSGSSGSSGSGLPDVASLRQQVEALQGQVQHLQAAFSQYKKVELFPNGQSVGEKIFKTAGFVKPFTEAQLLCTQAGGQLASPRSAAENAALQQLVVAKNEAAFLSMTDSKTEGKFTYPTGESLVYSNWAPGEPNDDGGSEDCVEIFTNGKWNDRACGEKRLVVCEFGGSPSSSSSSAWSHPQFEK
# notes: also called Sp-LIGHT-ASPD; LIGHT fusion protein
# B4: TRAILR2mut-A-CCSPD (ligand)
# chain: QRVAAHITGTRGRSNTLSSPNSKNEKALGRKINSWESSRSGHSFLSNLHLRNGELVIHEKGFYYIYSQTQFKFREEIKENTKNDKQMVQYIYKYTSYPDPILLMKSARNSCWSKDAEYGLYSIYQGGIFELKENDRIFVSVTNERLLQMDHEASFFGAFLVGSSGSSGSSGSGLPDVASLRQQVEALQGQVQHLQAAFSQYKKVELFPNGPSSSSSSAWSHPQFEK
# notes: as for B1
# B5: TRAILR2mut-ASPD (ligand)
# chain: QRVAAHITGTRGRSNTLSSPNSKNEKALGRKINSWESSRSGHSFLSNLHLRNGELVIHEKGFYYIYSQTQFKFREEIKENTKNDKQMVQYIYKYTSYPDPILLMKSARNSCWSKDAEYGLYSIYQGGIFELKENDRIFVSVTNERLLQMDHEASFFGAFLVGSSGSSGSSGSGLPDVASLRQQVEALQGQVQHLQAAFSQYKKVELFPNGQSVGEKIFKTAGFVKPFTEAQLLCTQAGGQLASPRSAAENAALQQLVVAKNEAAFLSMTDSKTEGKFTYPTGESLVYSNWAPGEPNDDGGSEDCVEIFTNGKWNDRACGEKRLVVCEFGGSPSSSSSSAWSHPQFEK
# notes: TRAIL-Receptor 2 selective mutein; homotrimer by SEC; also called Sp-TRAILR2mut-ASPD
# What was measured:
# [1] = biological target: T1, TRAIL-Receptor 1-Fc (R&D Systems) (UniProt O00220 24-239, limits assumed); assay: Streptactin-ELISA (FIG. 14A), supernatant immobilized, constant concentration of TRAIL-Receptor 1-Fc
# T1 construct: Bought reagent; also called Fc-fusion protein of TRAIL-Receptor 1; not shown: Fc part of the bought fusion
# T1 sequence (looked up): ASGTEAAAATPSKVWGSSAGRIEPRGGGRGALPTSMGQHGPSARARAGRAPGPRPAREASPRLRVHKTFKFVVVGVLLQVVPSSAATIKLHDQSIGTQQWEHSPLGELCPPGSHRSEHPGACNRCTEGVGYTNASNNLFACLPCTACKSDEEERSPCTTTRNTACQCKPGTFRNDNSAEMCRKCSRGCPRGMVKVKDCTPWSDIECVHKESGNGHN
# Procedure: (§1) To determine the binding of receptors to constructed ligands, streptactin-coated 96-well microplates were used. Therefore, supernatants from transiently transfected HEK293 cells, mouse sera or purified proteins were immobilized on streptactin-plates (IBA GmbH) for 1-3 hours in PBS. Samples were diluted in ELISA binding/blocking buffer (PBS, 0.1% Tween-20, 20% SuperBlock T20-PBS (Pierce)). Plates were washed with PBS+0.1% Tween-20 and incubated with mouse-anti-TRAIL antibody (Pharmingen, clone RIK-2), TRAIL-Receptor 1-Fc (R&D Systems), TRAIL-Receptor 2-Fc (R&D Systems), TACl-Fc (R&D Systems) or HVEM-Fc (R&D Systems) for one hour at room temperature. Plates were again washed and Fc-proteins were detected with anti-human- or anti-mouse-Fc-specific peroxidase-conjugated antibodies (Sigma). Colour reaction was done by addition of 100 μl per well of TMB substrate (Kem-En-Tec Diagnostics) and the absorbance at 450 nm and 630 nm was determined with an ELISA reader after addition of 25 μl of 25% H₂SO₄ as stop-solution. Values were calculated as 450 nm-630 nm with MS Excel.
# The selectivity of TRAIL-Receptor 1 or TRAIL-Receptor 2 towards fusion proteins of SPD/ccSPD and TRAIL, TRAILR1mut and TRAILR2mut was shown by Streptactin-ELISA. Therefore, TRAIL-SPD-fusion proteins in supernatants from transiently transfected HEK293 cells were immobilized on Streptactin coated microplates. Cell supernatant from untransfected cells served as negative control. Specifically bound proteins were detected with constant (A, B) or varying (C, D) concentrations of either TRAIL-Receptor 1-Fc or TRAIL-Receptor 2-Fc. As shown in (A), the ligand TRAILR1mut fused to SPD variants is deteced by TRAIL-Receptor 1, whereas the ligand TRAILR2mut is not. As shown in (B), the ligand TRAILR2mut is preferentially detected by TRAIL-Receptor 2, whereas TRAILR1mut-and TRAIL wild-type constructs are equally well detected. As shown in C, TRAIL-Receptor 1-Fc bound to TRAIL-R1 mut-ASPD and TRAIL-ASPD equally well over the whole receptor titration range, whereas TRAIL-R2mut-ASPD is not detected. As shown in D, TRAIL-Receptor 2-Fc bound to TRAIL-R2mut-ASPD and TRAIL-ASPD equally well over the receptor titration range analyzed, whereas the signal for TRAIL-R1mut-ASPD decreased rapidely with decreasing concentrations of receptor.
# [2] = biological target: T1, TRAIL-Receptor 1-Fc (R&D Systems); assay: Streptactin-ELISA, purified trimeric ligand immobilized via Strep-tag II, receptor-Fc detection
# Procedure: as §1
# Varying concentrations (0-10 microgram/ml) of affinity and SEC purified, trimeric LIGHT-ASPD were used for immobilized via the Strep-tag II on Streptactin-coated microplates. LIGHT-ASPD was then detected in a ELISA set-up using 100 ng/ml of Fc-fusion proteins of the receptors HVEM and TRAIL-Receptor 1, respectively. […]
Binder,binding result [1],binding result [2]
B1,no binding,
B2,no binding,
B3,,no binding
B4,no binding,
B5,no binding,

# Reference: patent publication US20170081386A1 (APOGENIX, published 2017)
